The values below come from paper doi:10.1101/2025.11.05.686744 (bioRxiv, 2025).

Changes are numbered by the printed parent chain. Names and notes keep the numbering of the source.

Experiment [1] deals with Spindlin1 (residues 50-262) (human, UniProt Q9Y657 50-262). The experiment is described as follows: NMR titration.
The target in experiment [2] is Spindlin1^C96A/H252F (residues 50-262) (human, UniProt Q9Y657 50-262, C96A | H252F). The experiment is described as follows: NMR titration.
Sequence of Spindlin1^C96A/H252F (residues 50-262) (Q9Y657 50-262 C96A/H252F): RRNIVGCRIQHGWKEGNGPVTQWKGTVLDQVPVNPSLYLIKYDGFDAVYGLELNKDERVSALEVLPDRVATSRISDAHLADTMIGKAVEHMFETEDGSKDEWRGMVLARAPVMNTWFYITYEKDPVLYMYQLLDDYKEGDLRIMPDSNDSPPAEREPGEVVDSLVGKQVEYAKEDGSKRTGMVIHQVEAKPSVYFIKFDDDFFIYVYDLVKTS

Sequence of Spindlin1 (residues 50-262) (Q9Y657 50-262): as the sequence (Q9Y657 50-262 C96A/H252F) above, with A47C, F203H counted along it

B1: HBx_(1-120) protein genotype D (Hepatitis B virus protein X, short isoform) (domain or fragment)
chain: MAARLCCQLDPARDVLCLRPVGAESCGRPFSGSLGTLSSPSPSAVPTDHGAHLSLRGLPVCAFSSAGPCALRFTSARRMETTVNAHQILPKVLHKRTLGLSAMSTTDLEAYFKDCLFKDW
With B1, in experiment [1], the binding result is “binds”.

B2: HBx_(1-120)^C61A/C69A (domain or fragment, Hepatitis B virus genotype D, UniProt P03165 1-120, looked up)
chain: B1 chain with C61A, C69A
For B2, the binding result in experiment [2] is recorded as “binds”.
